# Target: His-SP (RBD) (SARS-CoV-2, UniProt P0DTC2 319-541)
# Test: SPR
binder,measurement,value
His-CD147 (receptor) AAGTVFTTVEDLGSKILLTCSLNDSATEVTGHRWLKGGVVLKEDALPGQKTEFKVDSDDQWGEYSCVFLPEPMGTANIQLHGPPRVKAVKSSEHINEGETAMLVCKSESVPPVTDWAWYKITDSEDKALMNGSESRFFVSSSQGRSELHIENLNMEADPGQYRCNGTSSKGSDQAIITLRVRSHLAAL,Kd,185 nM

# From doi:10.1101/2020.03.14.988345 (bioRxiv, 2020)
